Data from paper PMC9072312, “Candida albicans evades NK cell elimination via binding of Agglutinin-Like Sequence proteins to the checkpoint receptor TIGIT” (Nature Communications, 2022).

Target: T1, PVR-Ig (extracellular portion of human PVR fused to the Fc domain of human IgG1) (human, UniProt P15151 21-343)
T1 construct: PVR (poliovirus receptor), human ligand of TIGIT, extracellular portion; source: HEK293T, transfected (pIRESpuro3), secreted, purified (HiTrap Protein G HP)
T1 sequence: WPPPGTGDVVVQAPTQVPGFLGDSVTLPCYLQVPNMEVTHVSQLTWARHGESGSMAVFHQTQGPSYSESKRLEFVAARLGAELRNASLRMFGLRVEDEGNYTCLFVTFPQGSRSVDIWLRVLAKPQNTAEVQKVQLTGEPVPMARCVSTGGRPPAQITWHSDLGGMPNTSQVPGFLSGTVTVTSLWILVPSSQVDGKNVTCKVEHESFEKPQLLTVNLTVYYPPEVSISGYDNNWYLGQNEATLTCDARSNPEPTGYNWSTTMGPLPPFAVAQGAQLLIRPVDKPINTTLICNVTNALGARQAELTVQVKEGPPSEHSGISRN
Experiment: MST; RED-NHS labeled TIGIT-Ig at constant level, unlabeled Ig-fusion proteins serially diluted in 1x PBS; Monolith NT.115, 20% MST power, 95% LED power, standard capillaries, 25 °C
Details: both partners purified

B1: TIGIT-Ig (extracellular ligand-binding domain of human TIGIT fused to the Fc domain of human IgG1) (Fc fusion)
chain: MMTGTIETTGNISAEKGGSIILQCHLSSTTAQVTQVNWEQQDQLLAICNADLGWHISPSFKDRVAPGPGLGLTLQSLTVNDTGEYFCIYHTYPDGTYTGRIFLEVLESSVAEHGARFQIP
modifications: fluorescently labeled with the Monolith NT Protein Labeling Kit RED-NHS
notes: also called human TIGIT-Ig; T cell immunoreceptor with Ig and ITIM domains; source: HEK293T, transfected (pIRESpuro3), secreted, purified (HiTrap Protein G HP)
- binding result: binds
